The record followed here is paper PMC9808567.

Holding throughout (assay): EMSA
A general note: Mobility shift assays separate free from complexed probe on a gel.

The target of one series is T1, PRPF39 NTD (human, UniProt Q86UA1 1-296).
T1 sequence: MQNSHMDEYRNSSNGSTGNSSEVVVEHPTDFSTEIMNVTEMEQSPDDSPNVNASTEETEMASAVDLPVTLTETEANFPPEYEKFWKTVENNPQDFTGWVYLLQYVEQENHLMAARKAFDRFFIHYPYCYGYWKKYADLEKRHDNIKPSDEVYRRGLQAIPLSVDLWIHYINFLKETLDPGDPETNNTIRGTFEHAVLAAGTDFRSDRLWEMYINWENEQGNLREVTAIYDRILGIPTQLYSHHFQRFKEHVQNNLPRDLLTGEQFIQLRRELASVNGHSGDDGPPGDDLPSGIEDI

In a further series the target is T2, PRPF39 CTD (human, UniProt Q86UA1 297-669).
T2 sequence: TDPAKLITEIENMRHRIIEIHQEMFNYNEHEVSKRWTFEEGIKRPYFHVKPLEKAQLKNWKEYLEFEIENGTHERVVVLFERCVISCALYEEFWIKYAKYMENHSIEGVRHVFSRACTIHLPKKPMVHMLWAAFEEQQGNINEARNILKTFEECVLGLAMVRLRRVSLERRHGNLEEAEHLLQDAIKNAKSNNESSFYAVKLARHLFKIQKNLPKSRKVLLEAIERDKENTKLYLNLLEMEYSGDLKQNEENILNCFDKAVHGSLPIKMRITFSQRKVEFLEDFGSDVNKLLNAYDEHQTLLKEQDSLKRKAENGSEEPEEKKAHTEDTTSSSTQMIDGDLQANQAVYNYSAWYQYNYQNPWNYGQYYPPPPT

In another series the target is T3, PRPF39 full-length (human, UniProt Q86UA1 1-669).
T3 sequence: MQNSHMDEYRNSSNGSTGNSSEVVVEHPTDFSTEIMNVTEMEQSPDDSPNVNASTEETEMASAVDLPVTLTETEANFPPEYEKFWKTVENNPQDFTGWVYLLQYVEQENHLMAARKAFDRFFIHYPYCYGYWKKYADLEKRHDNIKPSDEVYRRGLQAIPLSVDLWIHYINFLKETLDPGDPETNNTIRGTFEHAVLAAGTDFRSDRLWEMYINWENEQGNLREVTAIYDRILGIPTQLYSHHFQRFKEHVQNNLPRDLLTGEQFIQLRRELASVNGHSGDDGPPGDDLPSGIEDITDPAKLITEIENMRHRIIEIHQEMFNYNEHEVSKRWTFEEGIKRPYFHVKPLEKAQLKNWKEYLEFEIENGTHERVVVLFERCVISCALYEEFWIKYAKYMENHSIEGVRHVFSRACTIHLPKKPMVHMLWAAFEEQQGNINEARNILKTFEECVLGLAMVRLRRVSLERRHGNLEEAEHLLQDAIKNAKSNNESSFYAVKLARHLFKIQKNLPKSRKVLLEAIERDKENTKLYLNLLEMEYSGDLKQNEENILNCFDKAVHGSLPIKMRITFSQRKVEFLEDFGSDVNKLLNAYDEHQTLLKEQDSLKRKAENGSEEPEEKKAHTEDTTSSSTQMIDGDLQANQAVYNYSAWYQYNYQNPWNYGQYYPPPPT

Consider AAAAAAAAAA (ssRNA) [10 nt poly(A) RNA oligo], for which the binding result with PRPF39 NTD and with PRPF39 CTD was “no binding” each time. For orientation: Kd means the equilibrium constant for the complex coming apart. Higher therefore signals a looser complex. The molecule GGCCCCCCGG (ssRNA) [GC-rich RNA oligo] registered a Kd in the series with PRPF39 full-length of 516 ± 256 nM.
